According to US20250026841A1:

B1: anti-p95HER2 antibody clone R4-5 (antibody, human IgG1, kappa, V domains shown)
VH: QITLKESGPALVKPTQTLTLTCTFSGFSLSTSGVGVGWIRQPPGKALEWLALIYWDDDKRYSPSLKSRLTITKDTSKNQVVLTMTNMDPVDTATYYCAHSRLPYNSHGYWGQGTTVTVSS
VL: DIQMTQSPSSLSASVGDRVTITCQASQAIGNYLSWYQQKPGRAPKLLIYAASTLHSGVPSRFSGSGSGTDFTLTITSLQPDDFATYYCQQSYSVPVTFGLGTKLEIKR
B2: anti-p95HER2 antibody clone R4-15 (antibody, human IgG1, V domains shown)
VH: QITLKESGPTLVKPTQTLTLTCTFSGFSLSSGGVGVGWIRQPPGKALEWLALIYWDDDKRYSPSLKSRLTITKDTSKKQVVLTMTNMDPVDTATYYCAHLDYPENYFDQWGQGTLVTVSS
VL: DIQMTQSPSSLSASVGDRVTFTCRASQSISTYLNWYQQKPGKAPKLLIYAASTLQSGVPSRFSGSGSGTDFTLAISSLQPEDFATYFCQQSYSFPTFGQGTRLEIKR

Target: p95HER2 expressed on cells (p95HER2-HEK293, p95HER2-expressing NCI-H292) (human) (UniProt P04626)
Assay: flow cytometry on p95HER2-expressing NCI-H292 cells, ug/mL is the unit of the x axis

EC50 [µg/mL]	Binder
0.399	B1
0.0659	B2
